From article PMC5425828

Target: T1, Sco1678 (GntR-His) (Streptomyces coelicolor M145) (UniProt Q9AD89)
T1 sequence: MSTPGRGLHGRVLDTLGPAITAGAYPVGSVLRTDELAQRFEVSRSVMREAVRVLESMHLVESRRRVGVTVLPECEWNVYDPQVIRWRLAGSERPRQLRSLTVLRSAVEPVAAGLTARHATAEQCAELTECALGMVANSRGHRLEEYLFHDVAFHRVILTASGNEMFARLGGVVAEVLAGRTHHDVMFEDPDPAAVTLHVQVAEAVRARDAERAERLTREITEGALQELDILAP
Assay: EMSA
Conditions: 20 mM Tris/HCl pH 7.5, 50 mM KCl, 10 mM MgCl2, 5% (v/v) glycerol, 0.5 mM EDTA, 25 min at 25 C; 0.2 pmol Cy5 probe, 0.93-4.18 pmol protein; 8% native PAGE, 1x …

## AGCCAGTGGCGATAAGCGTCGTACTCCTGTTCCTGCCGGCCGGTGCGTGGTGCGGCTATATGACCAGGGACAACAGCAGGACCAGGGCACCGGCGACCACCGAGATGATCGTCTCCATGACGGACCAGGTCTTGATGGTCTGCCCCACGTTCAGCCCGAAGTACTCCTTCACCAGCCAGCTTATCGCCACTGGCT (double strand) [gntZ promoter region]
  binding: no binding

## AGCCAGTGGCGATAAGGTTGCTGCATCGCACTCTCGCTGTCTGCTGTCTTCGTCGACACCTGATGTCGACGCAACTGAAACTCATTAGTACGACAACTTCAAGAGTCTGTGACGTATAAGTCTGACTTTTTGTTCCCGTGACATGCCCCGTACGCTGAGTGCATGAGCACACCGGGCCGGGGGCTGCACGGCCGCGTACTGGACACCCTCGGCCCCGCGATCACAGCTTATCGCCACTGGCT (double strand) [gntR-gntK intergeneric region]
  binding: binds
